Biological target: Human EGFRvIII extracellular domain (ECD) C-terminal His-tagged protein (Homo sapiens, deletion of amino acids 6 to 273)
Assay: BLI

B1: monoclonal antibody 40H3 (antibody, V domains shown)
VH: QVQLKQSGPGLVQPSQSLSITCTVSGFSLTNYGIHWLRQSPGKGLEWLGMMWRGGGTDYNAAFISRLTITKDTSKSQVFFRMNNLQTNDTAIYYCARKGVGMGLGYWGQGTSVTVSS
VL: DIQMTQSPASQSASLGESVTITCLASQTIGTWVAWYQQKPGRSPQLLIYGATNLADGVPSRFSGSGSGTKFSFKISSLQAEDFVSYYCQQLYSNPYTFGGGTKLEIK
- Kd: ~0.27 nM

Reference: publication PMC6947844 (Antibody therapeutics, 2019)
